# Results from patent US20230365648A1 (published 2023).
# Read-outs that look alike come from different tables or passages of the source.
# T1: Cyno monkey CD47 (Cyno monkey, UniProt A0A2K5X523 19-139)
# T1 chain: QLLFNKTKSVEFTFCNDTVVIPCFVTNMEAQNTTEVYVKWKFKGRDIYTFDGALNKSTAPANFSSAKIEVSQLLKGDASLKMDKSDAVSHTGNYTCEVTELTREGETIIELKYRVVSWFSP
# T2: rat CD47 (rat, UniProt P97829 19-140)
# T2 chain: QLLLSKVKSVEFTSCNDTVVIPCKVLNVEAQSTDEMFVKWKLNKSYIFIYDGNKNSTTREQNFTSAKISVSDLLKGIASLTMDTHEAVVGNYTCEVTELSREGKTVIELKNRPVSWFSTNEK
# T3: mouse CD47 (mouse, UniProt Q61735 19-140)
# T3 chain: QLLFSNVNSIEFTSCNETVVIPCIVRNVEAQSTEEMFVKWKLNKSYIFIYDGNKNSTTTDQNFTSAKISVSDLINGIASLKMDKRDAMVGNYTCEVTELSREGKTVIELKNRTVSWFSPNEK
# Experiments:
# [1] = biological target: T1, Cyno monkey CD47; test: BLI (Octet)
# [2] = biological target: T4, rhCD47-his (human CD47) (human, UniProt Q08722 19-139); test: BLI (Octet)
# [3] = biological target: T1, Cyno monkey CD47; test: BLI (Octet)
# [4] = biological target: T4, rhCD47-his (human CD47); test: BLI (Octet); remark: listed apart in the source
# [5] = biological target: T2, rat CD47; test: BLI (Octet)
# [6] = biological target: T3, mouse CD47; test: BLI (Octet)
# [7] = biological target: CD47 on human CD45 negative red blood cells (human, UniProt Q08722 19-323); test: FACS cell binding
Kd [1],Kd [2],Kd [3],Kd [4],Kd [5],Kd [6],EC50 [7],Binder
97.4 pM,30 pM,97.4 pM,30 pM,1030 pM,5120 pM,12000 pM,"Construct 50 (SIRPα fusion polypeptide SEQ ID NO: 10 construct without the YTE mutation, i.e. with the wild type IgG4 Fc domain) (Fc fusion) EEELQIIQPDKSVLVAAGETATLRCTITSLFPVGPIQWFRGAGPGRVLIYNQRQGPFPRVTTVSDTTKRNNMDFSIRIGNITPADAGTYYCIKFRKGSPDDVEFKSGAGTELSVRAKPSAAAPPCPPCPAPEFLGGPSVFLFPPKPKDTLMISRTPEVTCVVVDVSQEDPEVQFNWYVDGVEVHNAKTKPREEQFNSTYRVVSVLTVLHQDWLNGKEYKCKVSNKGLPSSIEKTISKAKGQPREPQVYTLPPSQEEMTKNQVSLTCLVKGFYPSDIAVEWESNGQPENNYKTTPPVLDSDGSFFLYSRLTVDKSRWQEGNVFSCSVMHEALHNHYTQKSLSLSLGK"
21.1 pM,11.7 pM,21.1 pM,11.7 pM,681 pM,1610 pM,5800 pM,"Construct 67 (SIRPα fusion polypeptide of SEQ ID NO: 10, SIRPα domain of SEQ ID NO: 2 and IgG4 Fc domain with a YTE mutation) (Fc fusion) EEELQIIQPDKSVLVAAGETATLRCTITSLFPVGPIQWFRGAGPGRVLIYNQRQGPFPRVTTVSDTTKRNNMDFSIRIGNITPADAGTYYCIKFRKGSPDDVEFKSGAGTELSVRAKPSAAAPPCPPCPAPEFLGGPSVFLFPPKPKDTLYITREPEVTCVVVDVSQEDPEVQFNWYVDGVEVHNAKTKPREEQFNSTYRVVSVLTVLHQDWLNGKEYKCKVSNKGLPSSIEKTISKAKGQPREPQVYTLPPSQEEMTKNQVSLTCLVKGFYPSDIAVEWESNGQPENNYKTTPPVLDSDGSFFLYSRLTVDKSRWQEGNVFSCSVMHEALHNHYTQKSLSLSLGK"
